# From article PMC2690590, “Functional recombinant MHC class II molecules and high-throughput peptide-binding assays” (Immunome Research, 2009)
# Columns and labels:
# [1] = target: DR2a (DRA*0101/DRB5*0101), biotinylated, direct LOCI assay at pH 6 (human); experiment: AlphaScreen or HTRF
# [2] = target: DR2a (DRA*0101/DRB5*0101) with non-biotinylated β chain, competitive LOCI assay (human); experiment: AlphaScreen or HTRF
# [3] = target: DP401: DPA1*0103/DPB1*0401 (human); experiment: AlphaScreen or HTRF
# [4] = target: DR4 (DRA*0101/DRB1*0401), biotinylated, LOCI assay (human); experiment: AlphaScreen or HTRF
# [5] = target: DRB1*0813: DRA*0101/DRB1*0813 (human); experiment: AlphaScreen or HTRF
# [6] = target: DR1GrpE: DR1 α chain 1–181 and β chain 1–190 fused C-terminally to GrpE, not biotinylated (human); experiment: AlphaScreen or HTRF
# [7] = target: DRB3*0301: DRA*0101/DRB3*0301 (human); experiment: AlphaScreen or HTRF
# [8] = target: I-E^d (mouse MHC class II) (mouse) (UniProt P01904); experiment: AlphaScreen or HTRF
# [9] = target: ^125I labeled (Y)HA306–318 (influenza); experiment: radioligand binding
Substance,Kd [1] [nM],IC50 [2] [nM],Kd [3] [nM],Kd [4] [nM],Kd [5] [nM],IC50 [6] [nM],Kd [7] [nM],Kd [8] [nM],EC50 [9] [nM]
6xH Influenza A (PR8) HA 109–119 peptide …,9,23,1,1870,181,325,1530,984,
DR1: DRA*0101(1–191)/DRB1*0101(1–198) (complex),,,,,,,,,20
